Measured values from patent publication US20240336672A1 (INSTITUT PASTEUR, published 2024).

Assays:
Assay in all cases: cell-based or functional assay
[1] = molecular target: SARS-CoV-2 spike, Beta variant (B.1.351), on virus or pseudotyped particles (SARS-CoV-2)
[2] = molecular target: SARS-CoV-2 spike, Gamma variant (P.1), on virus or pseudotyped particles (SARS-CoV-2)
[3] = molecular target: T1, SARS-CoV-2 spike, Delta variant (B.1.617.2), on virus or pseudotyped particles (SARS-CoV-2)
[4] = molecular target: SARS-CoV-2 spike, Delta+ variant, on pseudotyped particles (SARS-CoV-2)
[5] = molecular target: SARS-CoV-2 spike, Omicron BA.2 variant, on virus (SARS-CoV-2)
[6] = molecular target: T1, SARS-CoV-2 spike, Delta variant …; remark: listed apart in the source

Row | Binder | Pseudoneutralization IC50 [1] [µg/mL] | Pseudoneutralization IC90 [1] [µg/mL] | S-Fuse neutralization IC50 [1] [µg/mL] | S-Fuse neutralization IC90 [1] [µg/mL] | Pseudoneutralization IC50 [2] [µg/mL] | Pseudoneutralization IC90 [2] [µg/mL] | S-Fuse neutralization IC90 [2] [µg/mL] | Pseudoneutralization IC50 [3] [µg/mL] | Pseudoneutralization IC90 [3] [µg/mL] | S-Fuse neutralization IC50 [3] [µg/mL] | S-Fuse neutralization IC90 [3] [µg/mL] | Pseudoneutralization IC50 [4] [µg/mL] | Pseudoneutralization IC90 [4] [µg/mL] | S-Fuse neutralization IC50 [5] [µg/mL] | S-Fuse neutralization IC90 [5] [µg/mL] | S-Fuse IC50 [6] [µg/mL] | S-Fuse neutralization IC50 [2] [µg/mL]
1 | Cv2.3194 (recombinant human IgG1) (antibody, V domains shown) VH: EVQLVESGGGLIQPGGSLRLSCAASGITVTSNYMSWVRQAPGKGLEWVSVIYPGGSTFYADSVKGRFTISRDNSKNTLYLQMNSLRAEDTAVYYCARDLVVYGMDVWGQGTTVTVSS VL: EIVLTQSPGTLSLSPGERATLSCRASQSVSSSYLAWYQQKPGQAPRLLIYGASSRATGIPGRFSGSGSGTDFTLTISRLEPEDFAIYYCQQGVTFGGGTKVEIKR | 0.0343 | 0.119 | 0.0052 | 0.02 | 0.0099 | 0.0561 | 0.0056 | 0.0544 | 0.115 | 0.0066 | 0.0547 | 0.0206 | 0.089 | 0.0405 | 0.582 | – | –
2 | Cv2.1169 (recombinant human IgG1) (antibody, also called Cv2.1169 IgG) heavy: QVQLVQSGPEVKKPGTSVKVSCKASGFTFTTSAVQWVRQARGQRLEWIGWIVVGSGNTNYAQKFQERVTITRDMSTTTAYMELSSLRSEDTAVYYCAAPYCSGGTCLDGFDIWGQGTMVTVSSASTKGPSVFPLAPSSKSTSGGTAALGCLVKDYFPEPVTVSWNSGALTSGVHTFPAVLQSSGLYSLSSVVTVPSSSLGTQTYICNVNHKPSNTKVDKKVEPKSCDKTHTCPPCPAPELLGGPSVFLFPPKPKDTLMISRTPEVTCVVVDVSHEDPEVKFNWYVDGVEVHNAKTKPREEQYNSTYRVVSVLTVLHQDWLNGKEYKCKVSNKALPAPIEKTISKAKQPREPQVYTLPPSRDELTKNQVSLTCLVKGFYPSDIAVEWESNGQPENNYKTTPPVLDSDGSFFLYSKLTVDKSRWQQGNVFSCSVMHEALHNHYTQKSLSLSPGK light: not shown | 0.0142 | 0.0342 | 0.0023 | 0.0072 | 0.0096 | 0.0292 | 0.0086 | 0.008 | 0.0341 | 0.0021 | 0.0064 | 0.0036 | 0.0149 | 0.332 | 9.69 | 0.00446 | 0.0016
